Laboratory results published in publication PMC12126490, “The HP1 box of KAP1 organizes HP1α for silencing of endogenous retroviral elements in embryonic stem cells” (Nature Communications, 2025).

Assays:
[1] = system: endogenous retroelements in KAP1 cKO ESCs; assay: ATAC-seq chromatin accessibility; assay type: cell-based, mouse; settings: exogenous expression in KAP1 cKO ESCs, 2 μg/mL doxycycline, 2 μM 4-OHT 48 h
Description: ESCs were maintained under standard conditions on gelatin-coated plates at 37 °C at 5% CO2 in Knockout DMEM (Thermo Fisher) supplemented with NEAA, GlutaMAX, penicillin/streptomycin (Thermo Fisher), 15% ESC-screened fetal bovine serum (Hyclone), 0.1 mM 2-mercaptoethanol (Fisher), and leukemia-inhibitory factor (LIF). Generation of KAP1 cKO ESCs has been described previously. The piggybac transposon system was used to stably integrate transgenic Flag-tagged WT or V488E mutant KAP1 under control of an rtTA promoter (Systems Biosciences, PB-TRE-EGFP-EF1a-rtTA) into the inducible KAP1 cKO ESCs. Exogenous expression of WT or V488E mutant KAP1 was induced with 2 μg/mL doxycycline for 48 h and maintained in doxycycline prior to endogenous KAP1 deletion. KAP1 deletion was induced with 2 μM 4-OHT (Sigma) treatment for 48 h. […]
The modified ATAC-sequencing protocol Omni-ATAC was performed. […] Number of further PCR cycles required was determined using KAPA Library Quantification Kit (KK4854). […]
Quality of datasets was assessed using the FastQC tool. Raw reads were adapter and quality trimmed using Trimgalore. Trimmed reads were aligned to the mouse reference genome (mm10) with Bowtie2. Multimapping reads were randomly assigned. Optical duplicate reads were filtered using Picard (https://broadinstitute.github.io/picard/). Reads which mapped to the mitochondrial genome were removed with Samtools. […]

FLAG-tagged HP1α = assay: pull-down with Strep-tagged KAP1, Western blot; assay type: binding; settings: Strep-tagged full-length KAP1 mutant, HCT116 cells; 3 biological replicates
Description: For all AP experiments, HCT116 cells were seeded in 10 cm plates (~4 million cells per dish) and transfected with Strep- and Flag-tagged plasmids one-day after seeding cells. Two days post-transfection, cells were collected in PBS and lysed with passive lysis buffer (PLB: 50 mM Tris-HCl pH 7.5, 150 mM NaCl, 1 mM DTT, 1.0% NP-40, 1.5 mM MgCl2, 5% v/v glycerol, and 1X complete, Mini EDTA-free, EASYpack Protease Inhibitor [Roche, Cat# 4693159001]) by resuspending cells in PLB, vortexing briefly, nutating for 15 min at 4 °C, and centrifuging the lysate (10,000 × g, 10 min, 4 °C). Strep-Tactin superflow resin (IBA Life Sciences, Cat# 2-1208-010), was equilibrated by centrifuging beads (2000 RPM, 2 min, 4 °C), removing storage buffer, and washing three times with PLB with nutation for 5 min at 4 °C. Beads were volumed back to their original volume, and 40 µL beads were used per AP and bound for 2 h. Beads were then washed with AP Wash Buffer (50 mM Tris-HCl pH 7.5, 250 mM NaCl, 1 mM DTT, 0.2% NP-40, 1.5 mM MgCl2, and 5% v/v glycerol), and eluted with Strep-tag Elution Buffer containing D-Desthiobiotin (IBA Life Sciences, Cat# 2-1000-025). […]
Tryptophan fluorescence data are presented as average of three independent measurements ±SD. […]

B1: V488E KAP1: V488E mutant of KAP1, impaired in binding to HP1 (protein)
chain: MAASAAAASAAAASAASGSPGPGEGSAGGEKRSTAPSAAASASASAAASSPAGGGAEALELLEHCGVCRERLRPEREPRLLPCLHSACSACLGPAAPAAANSSGDGGAAGDGTVVDCPVCKQQCFSKDIVENYFMRDSGSKAATDAQDANQCCTSCEDNAPATSYCVECSEPLCETCVEAHQRVKYTKDHTVRSTGPAKSRDGERTVYCNVHKHEPLVLFCESCDTLTCRDCQLNAHKDHQYQFLEDAVRNQRKLLASLVKRLGDKHATLQKSTKEVRSSIRQVSDVQKRVQVDVKMAILQIMKELNKRGRVLVNDAQKVTEGQQERLERQHWTMTKIQKHQEHILRFASWALESDNNTALLLSKKLIYFQLHRALKMIVDPVEPHGEMKFQWDLNAWTKSAEAFGKIVAERPGTNSTGPAPMAPPRAPGPLSKQGSGSSQPMEVQEGYGFGSGDDPYSSAEPHVSGVKRSRSGEGEVSGLMRKVPRESLERLDLDLTADSQPPVFKVFPGSTTEDYNLIVIERGAAAAATGQPGTAPAGTPGAPPLAGMAIVKEEETEAAIGAPPTATEGPETKPVLMALAEGPGAEGPRLASPSGSTSSGLEVVAPEGTSAPGGGPGTLDDSATICRVCQKPGDLVMCNQCEFCFHLDCHLPALQDVPGEEWSCSLCHVLPDLKEEDGSLSLDGADSTGVVAKLSPANQRKCERVLLALFCHEPCRPLHQLATDSTFSLDQPGGTLDLTLIRARLQEKLSPPYSSPQEFAQDVGRMFKQFNKLTEDKADVQSIIGLQRFFETRMNEAFGDTKFSAVLVEPPPMSLPGAGLSSQELSGGPGDGP
modifications: left off: Strep, end not stated, kept
[1]
  restoration of closed chromatin at IAPEz, MERVK10C and ETn: could not restore a closed chromatin state to the same extent observed with expression of WT KAP1
FLAG-tagged HP1α
  pull-down of FLAG-tagged HP1α: eliminated binding of exogenously expressed FLAG-tagged HP1α
